Source: patent US20260216242A1 (ALMAC DISCOVERY, published 2026)
Positions count from the first letter of the chain named. Names and notes keep the numbering of the source.

T1: human ALPL on CHO cells (human, UniProt P05186 18-501)
T1 construct: whole, on cells; also called CHO-ALPL
T1 sequence (looked up): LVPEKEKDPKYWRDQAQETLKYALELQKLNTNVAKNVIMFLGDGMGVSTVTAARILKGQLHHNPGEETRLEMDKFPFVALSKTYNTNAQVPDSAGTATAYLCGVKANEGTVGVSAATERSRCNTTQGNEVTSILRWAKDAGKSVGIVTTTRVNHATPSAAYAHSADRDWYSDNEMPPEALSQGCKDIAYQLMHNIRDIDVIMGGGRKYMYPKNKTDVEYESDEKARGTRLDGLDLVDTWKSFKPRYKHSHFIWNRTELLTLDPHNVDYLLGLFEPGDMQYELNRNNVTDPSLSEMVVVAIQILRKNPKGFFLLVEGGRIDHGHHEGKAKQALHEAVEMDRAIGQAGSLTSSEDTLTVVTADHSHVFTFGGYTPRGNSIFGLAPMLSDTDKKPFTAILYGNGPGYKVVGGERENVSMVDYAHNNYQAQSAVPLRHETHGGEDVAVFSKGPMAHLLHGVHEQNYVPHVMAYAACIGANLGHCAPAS

T2: ALPI His homodimer (human, UniProt P09923 20-503)
T2 construct: Whole entry with His tag; used in ELISA and BLI; also called hALPI
T2 sequence: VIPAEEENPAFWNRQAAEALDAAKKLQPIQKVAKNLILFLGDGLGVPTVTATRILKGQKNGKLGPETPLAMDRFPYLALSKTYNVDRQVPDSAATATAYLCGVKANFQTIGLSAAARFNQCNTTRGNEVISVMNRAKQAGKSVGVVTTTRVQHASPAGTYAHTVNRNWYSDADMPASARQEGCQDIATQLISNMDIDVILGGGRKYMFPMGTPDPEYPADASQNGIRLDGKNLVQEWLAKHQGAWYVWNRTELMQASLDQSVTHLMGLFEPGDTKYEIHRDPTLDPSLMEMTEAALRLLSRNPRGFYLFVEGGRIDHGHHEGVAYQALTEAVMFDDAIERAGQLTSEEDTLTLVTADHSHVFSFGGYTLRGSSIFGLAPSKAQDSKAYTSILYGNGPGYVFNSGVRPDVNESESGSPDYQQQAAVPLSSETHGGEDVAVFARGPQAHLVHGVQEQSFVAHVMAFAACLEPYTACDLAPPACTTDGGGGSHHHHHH

T3: Human ALPP (leucine zipper) (human)
T3 construct: Whole entry: ALPP fused with a cysteine stabilised leucine zipper and His tag; also called hALPP
T3 chain: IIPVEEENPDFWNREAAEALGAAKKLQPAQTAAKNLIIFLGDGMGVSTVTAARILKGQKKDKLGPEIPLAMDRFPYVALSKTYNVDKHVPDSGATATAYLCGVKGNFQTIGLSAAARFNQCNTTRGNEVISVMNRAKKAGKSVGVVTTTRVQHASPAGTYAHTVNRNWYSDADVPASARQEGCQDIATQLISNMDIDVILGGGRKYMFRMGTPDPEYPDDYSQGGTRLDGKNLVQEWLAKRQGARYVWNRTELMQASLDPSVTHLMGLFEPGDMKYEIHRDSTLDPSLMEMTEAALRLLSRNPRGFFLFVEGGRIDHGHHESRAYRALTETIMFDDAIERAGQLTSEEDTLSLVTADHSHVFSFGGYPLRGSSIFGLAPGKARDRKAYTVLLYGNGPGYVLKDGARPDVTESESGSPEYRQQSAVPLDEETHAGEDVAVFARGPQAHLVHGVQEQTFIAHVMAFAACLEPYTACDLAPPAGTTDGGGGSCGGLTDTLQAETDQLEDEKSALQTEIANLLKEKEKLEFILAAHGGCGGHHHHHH

T4: Human ALPL (leucine zipper) (human)
T4 construct: Whole entry: fused with a cysteine stabilised leucine zipper and His tag; also called hALPL
T4 chain: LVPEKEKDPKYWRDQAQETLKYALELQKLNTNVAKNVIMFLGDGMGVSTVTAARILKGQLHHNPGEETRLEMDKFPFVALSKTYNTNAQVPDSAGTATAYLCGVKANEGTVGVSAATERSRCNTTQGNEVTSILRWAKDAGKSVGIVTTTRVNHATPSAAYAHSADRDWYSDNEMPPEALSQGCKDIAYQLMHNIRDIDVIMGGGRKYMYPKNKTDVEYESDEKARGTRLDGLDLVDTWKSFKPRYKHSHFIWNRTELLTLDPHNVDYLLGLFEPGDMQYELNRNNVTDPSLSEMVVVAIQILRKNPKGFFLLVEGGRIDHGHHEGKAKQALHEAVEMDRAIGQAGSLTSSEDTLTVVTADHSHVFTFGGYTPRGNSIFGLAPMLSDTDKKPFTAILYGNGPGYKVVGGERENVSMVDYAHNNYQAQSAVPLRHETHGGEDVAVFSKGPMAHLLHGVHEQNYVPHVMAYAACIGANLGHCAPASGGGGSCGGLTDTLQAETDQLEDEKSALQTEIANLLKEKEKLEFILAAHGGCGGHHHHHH

B1: A06-E06-hFc-vcPAB-MMAE [G4S]1 (Fc fusion, DAR 4)
chain 1: QVHLVESGGGLVQAGGSLRLSCAASGRTFLSMGWFRQAPGKEREFVAAISWTGGSTGYADSVKGRFTISRESDKETMYLQMNSLKPEDTAVYYCAARGDVYYGGDDATRYKYWGQGTQVTVSSGGGGSEPKSSDKTHTCPPCPAPELLGGPCVFLFPPKPKDTLMISRTPEVTCVVVDVSHEDPEVKFNWYVDGVEVHNAKTKPREEQYNSTYRVVSVLTVLHQDWLNGKEYKCKVSNKALPAPIEKTISKAKGQPREPQVYTLPPSRDELTKNQVSLYCLVKGFYPSDIAVEWESNGQPENNYKTTPPVLDSDGSFFLYSKLTVDKSRWQQGNVFSCSVMHEALHNHYTQKSLCLSPGK
chain 2: QVHLVESGGGLVQAGGSLRLSCAASRRSFSEYAMGWFRQAPGKEREFVAAIGWSGVIEYADSVKGRFTISRDNAKDTVYLQMNSLKPEDTAVYYCAAGLGIRVVSQTPAYWGQGTQVTVSSGGGGSEPKSSDKTHTCPPCPAPELLGGPCVFLFPPKPKDTLMISRTPEVTCVVVDVSHEDPEVKFNWYVDGVEVHNAKTKPREEQYNSTYRVVSVLTVLHQDWLNGKEYKCKVSNKALPAPIEKTISKAKGQPREPQVYTLPPSRDELTKNQVSLTCLVKGFYPSDIAVEWESNGQPENNYKTTPPVLDSDGSFFLTSKLTVDKSRWQQGNVFSCSVMHEALHNHYTQKSLCLSPGK
modifications: MC-vc-PAB-MMAE on Cys 239 and Cys 442 (EU numbering)
notes: Biparatopic drug conjugate, DAR 4; also called #710
B2: A06-E10-hFc-vcPAB-MMAE [G4S]1 (Fc fusion, DAR 4)
chain 1: B1 chain 1
chain 2: QVQLVESGGGLVQAGGSLRLSCAVSGRALSDYNIGWFRQAPGKEREFVARKTWDGSSTRYDDSVKGRFTVSIEDAKNTAYLQMSSLKTEDTAVYYCAAGRYSRARGWEYDYWGQGTQVTVSSGGGGSEPKSSDKTHTCPPCPAPELLGGPCVFLFPPKPKDTLMISRTPEVTCVVVDVSHEDPEVKFNWYVDGVEVHNAKTKPREEQYNSTYRVVSVLTVLHQDWLNGKEYKCKVSNKALPAPIEKTISKAKGQPREPQVYTLPPSRDELTKNQVSLTCLVKGFYPSDIAVEWESNGQPENNYKTTPPVLDSDGSFFLTSKLTVDKSRWQQGNVFSCSVMHEALHNHYTQKSLCLSPGK
modifications: MC-vc-PAB-MMAE on Cys 239 and Cys 442 (EU numbering)
notes: Biparatopic drug conjugate, DAR 4; also called #711
B3: A06-F05-hFc-vcPAB-MMAE [G4S]1 (Fc fusion, DAR 4)
chain 1: B1 chain 1
chain 2: B2 chain 2 with V24A, L29F, S30G, K51R, E73D, D74N, S84N, A104V
modifications: MC-vc-PAB-MMAE on Cys 239 and Cys 442 (EU numbering)
notes: Biparatopic drug conjugate, DAR 4
B4: A06-E06 hFc-vcPAB-MMAE [G4S]3 (Fc fusion, DAR 4)
chain 1: QVHLVESGGGLVQAGGSLRLSCAASGRTFLSMGWFRQAPGKEREFVAAISWTGGSTGYADSVKGRFTISRESDKETMYLQMNSLKPEDTAVYYCAARGDVYYGGDDATRYKYWGQGTQVTVSSGGGGSGGGGSGGGGSEPKSSDKTHTCPPCPAPELLGGPCVFLFPPKPKDTLMISRTPEVTCVVVDVSHEDPEVKFNWYVDGVEVHNAKTKPREEQYNSTYRVVSVLTVLHQDWLNGKEYKCKVSNKALPAPIEKTISKAKGQPREPQVYTLPPSRDELTKNQVSLYCLVKGFYPSDIAVEWESNGQPENNYKTTPPVLDSDGSFFLYSKLTVDKSRWQQGNVFSCSVMHEALHNHYTQKSLCLSPGK
chain 2: QVHLVESGGGLVQAGGSLRLSCAASRRSFSEYAMGWFRQAPGKEREFVAAIGWSGVIEYADSVKGRFTISRDNAKDTVYLQMNSLKPEDTAVYYCAAGLGIRVVSQTPAYWGQGTQVTVSSGGGGSGGGGSGGGGSEPKSSDKTHTCPPCPAPELLGGPCVFLFPPKPKDTLMISRTPEVTCVVVDVSHEDPEVKFNWYVDGVEVHNAKTKPREEQYNSTYRVVSVLTVLHQDWLNGKEYKCKVSNKALPAPIEKTISKAKGQPREPQVYTLPPSRDELTKNQVSLTCLVKGFYPSDIAVEWESNGQPENNYKTTPPVLDSDGSFFLTSKLTVDKSRWQQGNVFSCSVMHEALHNHYTQKSLCLSPGK
modifications: MC-vc-PAB-MMAE on Cys 239 and Cys 442 (EU numbering)
notes: Biparatopic drug conjugate, DAR 4; also called #639
B5: A06-E10 hFc-vcPAB-MMAE [G4S]3 (Fc fusion, DAR 4)
chain 1: B4 chain 1
chain 2: QVQLVESGGGLVQAGGSLRLSCAVSGRALSDYNIGWFRQAPGKEREFVARKTWDGSSTRYDDSVKGRFTVSIEDAKNTAYLQMSSLKTEDTAVYYCAAGRYSRARGWEYDYWGQGTQVTVSSGGGGSGGGGSGGGGSEPKSSDKTHTCPPCPAPELLGGPCVFLFPPKPKDTLMISRTPEVTCVVVDVSHEDPEVKFNWYVDGVEVHNAKTKPREEQYNSTYRVVSVLTVLHQDWLNGKEYKCKVSNKALPAPIEKTISKAKGQPREPQVYTLPPSRDELTKNQVSLTCLVKGFYPSDIAVEWESNGQPENNYKTTPPVLDSDGSFFLTSKLTVDKSRWQQGNVFSCSVMHEALHNHYTQKSLCLSPGK
modifications: MC-vc-PAB-MMAE on Cys 239 and Cys 442 (EU numbering)
notes: as for B3
B6: A06-F05 hFc-vcPAB-MMAE [G4S]3 (Fc fusion, DAR 4)
chain 1: B4 chain 1
chain 2: B5 chain 2 with V24A, L29F, S30G, K51R, E73D, D74N, S84N, A104V
modifications: MC-vc-PAB-MMAE on Cys 239 and Cys 442 (EU numbering)
notes: as for B3
B7: B11 (VHH, not shown: small tags and cut ends)
VHH: QVHLVESGGGSVQAGGSLRLSCAASGPSLSNYAMGWFRQAPGKEREFVAGISWGGGRTSYTDSVKGRFTISRDNAKNTVYLQMNNLKPEDTGVYYCAGRYGRGRNVEYEYDYWGQGTQVTVSS

Experiments:
[1] = molecular target: T1, human ALPL on CHO cells; experiment: flow cytometry, CHO cells stably expressing human ALPL; PDC detected with FITC anti-human Ab
Description: Biparatopic VHH-hFc drug conjugates were assessed for human ALPP, ALPPL2, ALPI and ALPL cell-surface binding by flow cytometry. Binders were screened on CHO cells stably expressing human ALPP, ALPPL2, ALPI or ALPL.
Cell surface binding of test agents to hALPP isoforms was characterized in four CHO-ALPP isoform transfectant cell lines (CHO-ALPP, CHO-ALPPL2, CHO-ALPI and CHO-ALPL) and the resulting KDapp values determined. Adherent cells were detached from tissue culture flasks by incubating with 0.1% EDTA/PBS solution at 37° C. for […] or until cells detached easily. Cells were re-suspended in ice-cold PBS/2% FCS in 15 ml tubes and centrifuged at 1700 rpm for 5 mins at 4° C. Supernatant was removed and the cell pellet re-suspended in PBS/2% FCS. […] Cells were incubated with 100 μl of test agents at a range of concentrations, plus controls for 1 hr on ice. The sample plate was centrifuged at 1700 rpm for 5 mins at 4° C. The supernatant was removed, and a wash performed by re-suspending the cell pellets in 0.25 mL of ice-cold PBS/2% FCS using a multichannel pipette. Samples were again centrifuged at 1700 rpm for 5 min at 4° C. Supernatant was removed and two further washes performed as described. After the final wash and centrifugation step, excess liquid was removed by blotting the plate on tissue paper. Binding of VHH-hFc agents was determined by adding 100 μl of Fitc-anti-human Ab (ThermoFisher) and incubating for 30 mins on ice in the dark. Wash steps were performed as described previously. All cell pellets were finally re-suspended in 0.28 ml of ice-cold PBS/2% FCS and left on ice in the dark prior to analysis on a Merck-Millipore Guava EasyCyte HT or Thermo Fisher Attune N×T flow cytometer.

[2] = molecular target: T2, ALPI His homodimer; experiment: ELISA, antigen coated
Description: ELISA was used to test the binding and specificity of the VHHs. […] Anti-Llama—HRP antibody was used for detection.

[3] = molecular target: T3, Human ALPP (leucine zipper); experiment: BLI, antigen immobilised
Description: (§1) Binding kinetics were determined using the Biolayer Interferometry (BLI) Octet K2 system (Sartorius). […] All assays were conducted in PBS with a plate temperature of 25° C. Ka (M⁻¹s⁻¹), Kd (s⁻¹) and KD (nM) values were determined using Octet Data Analysis High Throughput software (ForteBio) for Biolayer Interferometry.

[4] = molecular target: T4, Human ALPL (leucine zipper); experiment: BLI, antigen immobilised
Description: as §1

Binder	binding result [1]	other results
B1	no binding (tested: 350 nM)	
B2	no binding (tested: 350 nM)	
B3	no binding (tested: 350 nM)	
B4	no binding (tested: 350 nM)	
B5	no binding (tested: 350 nM)	
B6	no binding (tested: 350 nM)	
B7		binding result [2]: no binding (tested: 500 ng VHH); kon [3]: 213000 M⁻¹ s⁻¹; binding result [4]: no binding
